Molecular target: human CD3 on activated lymphocytes (human)
Test: cell-based or functional assay

Substance	GFP positive cells after transduction of activated lymphocytes (GFP vector) [%]
OKT3-CD8a-VSVG	> 50
OKT3-VSVG	7
